# Measured values from patent US5616484.
# Target: T1, ApaLI restriction endonuclease (apaLIR product, 375 aa) (Acetobacter pasteurianus) (UniProt O52703)
# T1 sequence: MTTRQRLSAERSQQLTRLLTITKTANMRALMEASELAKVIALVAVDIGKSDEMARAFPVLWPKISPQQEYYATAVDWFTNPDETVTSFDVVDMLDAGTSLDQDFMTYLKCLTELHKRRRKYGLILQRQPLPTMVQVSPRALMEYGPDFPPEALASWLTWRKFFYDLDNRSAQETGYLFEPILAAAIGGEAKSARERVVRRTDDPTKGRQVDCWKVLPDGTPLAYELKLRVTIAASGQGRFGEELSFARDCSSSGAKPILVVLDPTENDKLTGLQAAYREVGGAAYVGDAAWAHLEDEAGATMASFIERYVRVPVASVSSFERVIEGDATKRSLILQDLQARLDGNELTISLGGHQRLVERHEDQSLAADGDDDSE
# Experiment: cleavage_in_vitro
# Conditions: diluted cell extract, 1 ug lambda DNA, 1 h, 37 C
substance,measurement,value
lambda DNA,activity (units/g wet cells),1e+06
